B1: TRPA1 ARD construct (N-terminal ankyrin repeat domains, amino acids 446-639) (domain or fragment, human, UniProt O75762 446-639, looked up)
chain: KKSPLHFAASYGRINTCQRLLQDISDTRLLNEGDLHGMTPLHLAAKNGHDKVVQLLLKKGALFLSDHNGWTALHHASMGGYTQTMKVILDTNLKCTDRLDEDGNTALHFAAREGHAKAVALLLSHNADIVLNKQQASFLHLALHNKRKEVVLTIIRSKRWDECLKIFSHNSPGNKCPITEMIEYLPECMKVLLD
notes: human TRPA1 ankyrin repeat domains with resolvable density in the cryoEM structure, amino acids 446-639; Cloned into pET28b (Nhe I and Sac I) in frame with an N-terminal poly-histidine tag; also called ARDs; N-terminal ARD; source: E. coli BL21(DE3), co-expressed with MBPCC1, in cleared lysate; not shown: poly-histidine, N-terminal, kept
B2: MBPCC1: maltose-binding protein fusion of the human TRPA1 C-terminal coiled-coil CC1 (amino acids A1036-T1078) (domain or fragment, UniProt O75762 1036-1078, looked up)
chain: ADKSLEMEILKQKYRLKDLTFLLEKQHELIKLIIQKMEIISET
notes: human TRPA1 C-terminal coiled-coil CC1, amino acids A1036-T1078; source: E. coli BL21(DE3), purified (amylose resin, SEC); also co-expressed with ARD in BL21(DE3), in cleared lysate; not shown: poly-histidine, N-terminal, kept; MBP, N-terminal, kept

Key:
[1] = molecular target: B2; assay: pull-down; amylose resin co-purification from cleared lysate of bacteria co-expressing ARD and MBPCC1; incubation and 4 washes at 4 C, Buffer A1T, with or without IP6 and/or AITC; anti-His Western blot; conditions: partners not purified
[2] = molecular target: the molecule itself; assay: SEC-MALS; MBPCC1 at 15 mg/ml (~300 uM), absence of IP6, Superdex 200 column
[3] = molecular target: the molecule itself; assay: SEC-MALS; MBPCC1 diluted to 1 mg/ul (~20 uM) as printed, absence of IP6, Superdex 200 column

Binder | ARD:CC ratio [1] | stoichiometry N [2] | stoichiometry N [3]
B1 | ~0.3 | – | –
B2 | – | 4 | 3

Source: PMC6386368, “Multimerization of Homo sapiens TRPA1 ion channel cytoplasmic domains” (PLoS ONE, 2019)
